# According to US20240293512A1 (HANMI PHARM, published 2024):
# Where a chain is given by its changes, count along the chain named. Bridge positions count the residues as written; N and C are the ends. Square brackets hold non-standard residues; d marks the D form. Ends that are not written are not given here. * marks the point of attachment. Acetyl(2-(4-imidazolyl)) = O=C(Cc1c[nH]cn1)*; Aib = CC(C)(N)C(=O)O
# T1: human GIP receptor (human, UniProt P48546 22-466)
# T1 sequence (looked up): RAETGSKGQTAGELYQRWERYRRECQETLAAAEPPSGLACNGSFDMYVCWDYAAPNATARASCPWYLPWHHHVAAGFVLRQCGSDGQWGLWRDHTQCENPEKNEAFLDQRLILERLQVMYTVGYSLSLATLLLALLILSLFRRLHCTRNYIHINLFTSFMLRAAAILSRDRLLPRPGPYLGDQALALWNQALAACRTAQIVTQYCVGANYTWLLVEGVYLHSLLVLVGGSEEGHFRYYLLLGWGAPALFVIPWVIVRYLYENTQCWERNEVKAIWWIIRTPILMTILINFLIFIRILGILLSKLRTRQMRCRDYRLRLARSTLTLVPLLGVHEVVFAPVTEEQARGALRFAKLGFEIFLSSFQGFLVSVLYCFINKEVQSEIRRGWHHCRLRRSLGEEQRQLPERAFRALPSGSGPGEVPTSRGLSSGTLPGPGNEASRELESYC
# B1: triple agonist of SEQ ID NO: 49 (peptide)
# peptide: [Acetyl(2-(4-imidazolyl))][Aib]QGTFTSDYSICMDEIHQKDFVNWLLNTK
# modifications: bridge 16-20
# B2: triple agonist of SEQ ID NO: 6 (peptide)
# peptide: H[Aib]QGTFTSDVSSYLDGQAAKEFVAWLLKGC
# B3: triple agonist of SEQ ID NO: 41 (peptide)
# peptide: H[Aib]QGTFTSDKSKYLDECAAQDFVQWLLDGGPSSGAPPPS
# B4: triple agonist of SEQ ID NO: 44 (peptide)
# peptide: HGQGTFTSDCSKQLDGQAAQEFVAWLLAGGPSSGAPPPS
# B5: triple agonist of SEQ ID NO: 48 (peptide)
# peptide: B4 peptide with Q13Y, A18R, E21D, A24N
# B6: triple agonist of SEQ ID NO: 46 (peptide)
# peptide: B4 peptide with Q13Y, G16E, A18H
# B7: triple agonist of SEQ ID NO: 47 (peptide)
# peptide: B4 peptide with Q13Y, A18R
# B8: triple agonist of SEQ ID NO: 45 (peptide)
# peptide: B4 peptide with Q13Y, L14M, E21D
# B9: triple agonist of SEQ ID NO: 37 (peptide)
# peptide: H[Aib]QGTFTSDYSKYLDECRQKEFVQWLLNGGPSSGAPPPSG
# modifications: bridge 16-20
# B10: triple agonist of SEQ ID NO: 43 (peptide)
# peptide: Y[Aib]QGTFTSDYSKYLDEKRAKEFVQWLLDHHCSSGQPPPS
# modifications: not fully specified (bridges)
# B11: triple agonist of SEQ ID NO: 58 (peptide)
# peptide: H[Aib]QGTFTSDYSKYLDEKRQKEFVQWLLNTKC
# modifications: bridge 16-20
# B12: triple agonist of SEQ ID NO: 34 (peptide)
# peptide: H[Aib]QGTFTSDYSKYLDEKRQKEFVNWLLAQKC
# modifications: bridge 16-20
# B13: triple agonist of SEQ ID NO: 50 (peptide)
# peptide: H[Aib]QGTFTSDYSKYLDEKRAKEFVQWLLDHHPSSGQPPPSC
# modifications: bridge 16-20
# B14: triple agonist of SEQ ID NO: 42 (peptide)
# peptide: Y[Aib]QGTFTSDYSKYLDEKRAKEFVQWLLDHHPSSGQPPPSC
# modifications: not fully specified (bridges)
# Biological target: human GCG receptor (human, UniProt P47871 26-477)
# Assay: cell-based or functional assay
# Sequence of human GCG receptor (P47871 26-477): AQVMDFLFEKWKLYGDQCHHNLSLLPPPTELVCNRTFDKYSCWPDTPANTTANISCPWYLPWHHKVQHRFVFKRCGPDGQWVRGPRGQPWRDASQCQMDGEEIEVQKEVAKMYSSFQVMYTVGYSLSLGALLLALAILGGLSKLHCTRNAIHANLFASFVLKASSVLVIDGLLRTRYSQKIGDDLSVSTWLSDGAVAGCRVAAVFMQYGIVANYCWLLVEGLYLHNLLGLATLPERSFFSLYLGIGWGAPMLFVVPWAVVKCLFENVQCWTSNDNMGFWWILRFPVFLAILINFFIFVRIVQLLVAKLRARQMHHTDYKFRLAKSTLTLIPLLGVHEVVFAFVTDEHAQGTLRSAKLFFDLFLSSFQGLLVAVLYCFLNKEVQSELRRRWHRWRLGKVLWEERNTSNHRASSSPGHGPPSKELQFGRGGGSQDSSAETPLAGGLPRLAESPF
row,Binder,In vitro activity compared with native peptide (%) vs Glucagon (cAMP EC50) [%]
1,B1,< 0.1
2,B2,< 0.1
3,B3,< 0.1
4,B4,< 0.1
5,B5,< 0.1
6,B6,< 0.1
7,B7,< 0.1
8,B8,< 0.1
9,B9,6.21
10,B10,88.4
11,B11,2.6
12,B12,0.92
13,B13,50.5
14,B14,206

# Biological target: T1, human GIP receptor
# Assay: cell-based or functional assay
row,Binder,In vitro activity compared with native peptide (%) vs GIP (cAMP EC50) [%]
1,B1,3.3
2,B2,< 0.1
3,B3,< 0.1
4,B4,< 0.1
5,B5,< 0.1
6,B6,< 0.1
7,B7,< 0.1
8,B8,< 0.1
9,B9,2.2
10,B10,3.7
11,B11,0.2
12,B12,0.6
13,B13,2.7
14,B14,7.8

# Biological target: human GLP-1 receptor (human, UniProt P43220 24-463)
# Assay: cell-based or functional assay
row,Binder,In vitro activity compared with native peptide (%) vs GLP-1 (cAMP EC50) [%]
1,B1,29.8
2,B2,17
3,B3,34.3
4,B4,1.3
5,B5,1.5
6,B6,1.4
7,B7,2.4
8,B8,6.6
9,B9,236
10,B10,12.6
11,B11,39.1
12,B12,19.1
13,B13,67.4
14,B14,33.9
